Results from article PMC11485048.

Tests used:
[1] = target: SpyTag-noro-VLP (norovirus-like particle of the capsid protein VP1 with a C-terminally fused SpyTag) (norovirus (genotype not stated)); assay: covalent SpyCatcher/SpyTag conjugation read by SDS-PAGE densitometry; SpyCatcher-antigen mixed with SpyTag-noro-VLP at 2:1 (P domain) or 4:1 (peptides) molar ratio, about 40 hours at +4 °C; unreacted SpyCatcher-antigen removed by dialysis through a 1000 kDa cut-off membrane; first immunization experiment
[2] = target: SpyTag-noro-VLP (norovirus-like particle of the capsid protein VP1 with a C-terminally fused SpyTag) (norovirus (genotype not stated)); assay: covalent SpyCatcher/SpyTag conjugation read by SDS-PAGE densitometry; SpyCatcher-P domain conjugated on SpyTag-noro-VLP as in the first experiment; nonconjugated antigen removed by size-exclusion chromatography (HiPrep 16/60 Sephacryl S-500 HR); second immunization experiment

SpyCatcher-P domain fusion (furin P domain, residues 444-576) (from UniProt P09958 444-576)
conjugation efficiency (%) [1]: 20% | conjugation efficiency (%) [2]: 5%
